Laboratory results as given in article PMC5561102, “Fusion protein analysis reveals the precise regulation between Hsp70 and Hsp100 during protein disaggregation” (Scientific Reports, 2017).
pKd: −log10 of the molar value. Values belong to the substance of their own block, whether it stands above or below them.

Tests used:
[1] = target: ClpB (Escherichia coli) (UniProt P63284); settings: cited from earlier work
[2] = target: TK-B (Thermus thermophilus) (UniProt Q56235)
[3] = target: TK_NBD-B (Thermus thermophilus) (UniProt Q56235)
[4] = target: TK_ΔSBDα_K69A-B (Thermus thermophilus) (UniProt Q56235)
[5] = target: TK_ΔSBDα_T195A-B (Thermus thermophilus) (UniProt Q56235)
[6] = target: TK_NBD_T195A-B (Thermus thermophilus) (UniProt Q56235)
Chain of TK_NBD_T195A-B (Thermus thermophilus) (Q56235 other isoform, or with tags, fused parts or gaps T195A | T195A): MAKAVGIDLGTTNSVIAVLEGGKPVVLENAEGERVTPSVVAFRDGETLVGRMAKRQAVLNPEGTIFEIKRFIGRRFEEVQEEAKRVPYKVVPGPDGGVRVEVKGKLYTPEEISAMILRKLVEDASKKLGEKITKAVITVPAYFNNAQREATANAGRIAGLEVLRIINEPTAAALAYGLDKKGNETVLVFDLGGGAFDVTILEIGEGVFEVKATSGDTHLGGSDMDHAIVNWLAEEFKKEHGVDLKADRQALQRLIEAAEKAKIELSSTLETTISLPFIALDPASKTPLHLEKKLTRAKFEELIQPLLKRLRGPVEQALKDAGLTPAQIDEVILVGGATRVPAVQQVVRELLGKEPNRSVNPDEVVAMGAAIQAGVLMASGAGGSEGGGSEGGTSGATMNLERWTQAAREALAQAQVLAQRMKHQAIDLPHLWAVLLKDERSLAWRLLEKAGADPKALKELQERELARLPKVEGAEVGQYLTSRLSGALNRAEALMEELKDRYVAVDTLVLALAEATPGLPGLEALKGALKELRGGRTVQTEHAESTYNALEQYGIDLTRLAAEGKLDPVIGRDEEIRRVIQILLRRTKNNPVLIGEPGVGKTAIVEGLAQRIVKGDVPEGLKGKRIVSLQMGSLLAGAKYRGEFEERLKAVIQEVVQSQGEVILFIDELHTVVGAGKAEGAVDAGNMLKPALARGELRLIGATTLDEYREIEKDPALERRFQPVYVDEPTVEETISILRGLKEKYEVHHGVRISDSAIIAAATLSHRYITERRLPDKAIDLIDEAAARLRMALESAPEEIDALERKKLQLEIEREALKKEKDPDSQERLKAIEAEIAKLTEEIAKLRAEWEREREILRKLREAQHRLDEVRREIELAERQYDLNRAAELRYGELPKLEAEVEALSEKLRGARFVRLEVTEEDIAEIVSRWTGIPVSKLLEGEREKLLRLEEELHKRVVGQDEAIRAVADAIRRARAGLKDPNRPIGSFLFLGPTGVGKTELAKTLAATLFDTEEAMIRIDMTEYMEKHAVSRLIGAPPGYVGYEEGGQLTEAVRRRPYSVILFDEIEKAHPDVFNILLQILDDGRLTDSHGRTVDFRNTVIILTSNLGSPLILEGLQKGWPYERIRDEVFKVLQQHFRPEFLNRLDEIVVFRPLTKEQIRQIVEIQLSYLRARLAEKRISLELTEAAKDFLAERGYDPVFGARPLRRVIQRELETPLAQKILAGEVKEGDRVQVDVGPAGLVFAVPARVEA

[7] = target: TK_NBD_K69A-B (Thermus thermophilus) (UniProt Q56235)
Chain of TK_NBD_K69A-B (Thermus thermophilus) (Q56235 other isoform, or with tags, fused parts or gaps K69A | K69A): as the sequence (Q56235 other isoform, or with tags, fused parts or gaps T195A | T195A) above, with K69A, A195T counted along it

[8] = target: TK_NBD-B (Thermus thermophilus) (UniProt Q56235); remark: listed apart in the source
Target sequence in this assay (Q56235 other isoform, or with tags, fused parts or gaps): as the sequence (Q56235 other isoform, or with tags, fused parts or gaps T195A | T195A) above, with A195T counted along it

[9] = target: TK_NBD_T195A-B (Thermus thermophilus) (UniProt Q56235); remark: listed apart in the source
[10] = target: TK_NBD_K69A-B (Thermus thermophilus) (UniProt Q56235); remark: listed apart in the source
[11] = target: TK_NBD-B (Thermus thermophilus) (UniProt Q56235); remark: listed apart in the source
Target sequence in this assay (Q56235 other isoform, or with tags, fused parts or gaps): as the sequence (Q56235 other isoform, or with tags, fused parts or gaps T195A | T195A) above, with A195T counted along it

Chain of Thermus thermophilus DnaK (TDnaK) (Q56235 whole entry): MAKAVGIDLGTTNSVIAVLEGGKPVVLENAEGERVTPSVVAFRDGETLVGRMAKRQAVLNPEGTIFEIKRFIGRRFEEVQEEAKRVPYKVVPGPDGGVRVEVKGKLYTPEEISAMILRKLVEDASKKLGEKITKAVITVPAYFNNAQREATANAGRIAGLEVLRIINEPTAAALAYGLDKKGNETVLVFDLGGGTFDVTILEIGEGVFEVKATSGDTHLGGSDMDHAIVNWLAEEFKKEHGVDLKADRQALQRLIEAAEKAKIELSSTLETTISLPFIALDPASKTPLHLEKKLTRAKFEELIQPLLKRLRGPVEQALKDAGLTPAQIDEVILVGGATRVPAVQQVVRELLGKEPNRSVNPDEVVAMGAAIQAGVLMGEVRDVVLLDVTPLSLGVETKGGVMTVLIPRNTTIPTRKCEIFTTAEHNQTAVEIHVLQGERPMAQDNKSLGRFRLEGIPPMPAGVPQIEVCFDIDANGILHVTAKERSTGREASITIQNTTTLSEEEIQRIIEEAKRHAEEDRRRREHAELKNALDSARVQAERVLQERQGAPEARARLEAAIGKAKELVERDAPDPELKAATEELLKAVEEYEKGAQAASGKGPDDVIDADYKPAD
Chain of DnaK (P0A6Y8 2-638): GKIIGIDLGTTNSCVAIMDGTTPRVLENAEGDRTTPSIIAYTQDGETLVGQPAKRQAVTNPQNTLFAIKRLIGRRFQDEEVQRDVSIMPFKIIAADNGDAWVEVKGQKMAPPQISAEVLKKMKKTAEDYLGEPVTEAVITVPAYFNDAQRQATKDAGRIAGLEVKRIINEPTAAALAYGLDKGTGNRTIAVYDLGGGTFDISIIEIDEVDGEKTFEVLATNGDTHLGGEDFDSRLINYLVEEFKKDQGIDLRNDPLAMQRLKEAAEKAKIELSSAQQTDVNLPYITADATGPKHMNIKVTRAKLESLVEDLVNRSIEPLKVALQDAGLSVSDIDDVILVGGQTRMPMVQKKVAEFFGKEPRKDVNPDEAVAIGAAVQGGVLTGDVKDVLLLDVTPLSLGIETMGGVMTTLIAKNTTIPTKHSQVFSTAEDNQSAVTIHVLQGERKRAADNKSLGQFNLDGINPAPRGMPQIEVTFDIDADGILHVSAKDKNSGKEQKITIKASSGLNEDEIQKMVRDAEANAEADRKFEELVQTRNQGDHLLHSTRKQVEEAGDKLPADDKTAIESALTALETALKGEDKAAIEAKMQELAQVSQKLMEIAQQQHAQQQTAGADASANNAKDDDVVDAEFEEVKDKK
Chain of ClpB (Escherichia coli) (P63284 whole entry): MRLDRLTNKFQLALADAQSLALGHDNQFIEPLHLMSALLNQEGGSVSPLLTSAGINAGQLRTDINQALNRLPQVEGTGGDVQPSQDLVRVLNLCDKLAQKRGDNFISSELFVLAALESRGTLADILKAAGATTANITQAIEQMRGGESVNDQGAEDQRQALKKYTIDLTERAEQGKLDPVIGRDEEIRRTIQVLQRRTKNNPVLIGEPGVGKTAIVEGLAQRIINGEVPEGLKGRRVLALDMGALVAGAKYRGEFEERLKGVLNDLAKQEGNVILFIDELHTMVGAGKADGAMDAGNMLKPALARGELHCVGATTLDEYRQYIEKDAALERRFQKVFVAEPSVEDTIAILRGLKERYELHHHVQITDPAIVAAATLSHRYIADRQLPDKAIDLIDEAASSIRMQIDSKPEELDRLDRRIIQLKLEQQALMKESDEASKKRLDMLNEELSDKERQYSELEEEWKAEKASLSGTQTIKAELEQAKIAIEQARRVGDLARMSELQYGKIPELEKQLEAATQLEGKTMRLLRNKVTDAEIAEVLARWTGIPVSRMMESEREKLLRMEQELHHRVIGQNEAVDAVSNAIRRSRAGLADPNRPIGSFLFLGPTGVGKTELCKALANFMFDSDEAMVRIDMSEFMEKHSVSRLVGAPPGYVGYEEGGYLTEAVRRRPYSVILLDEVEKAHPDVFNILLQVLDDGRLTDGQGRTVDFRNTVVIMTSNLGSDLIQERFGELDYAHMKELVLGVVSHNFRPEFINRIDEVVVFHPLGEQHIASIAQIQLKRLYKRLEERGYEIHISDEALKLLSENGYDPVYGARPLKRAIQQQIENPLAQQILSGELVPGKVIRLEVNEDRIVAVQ

Substance: DnaK (from UniProt P0A6Y8)
pKd [1]: 4.60

ATPase activity of the fusion (TClpB portion stimulated by the fused TDnaK portion), 55 °C, 3 mM ATP, against unfused TClpB (times that of TClpB) [2]: 5
Substance: TK-B (from UniProt Q56235 1-615; Q9RA63 1-854)

ATPase activity of the fusion (TClpB portion stimulated by the fused NBD of TDnaK), 55 °C, 3 mM ATP, against TK-B [3]: 2 fold of TK-B
Substance: TK_NBD-B (from UniProt Q56235 1-377; Q9RA63 1-854)

ATPase activity of the fusion, 55 °C, 3 mM ATP, against TK K69A-B (fold of TK K69A-B) [4]: 1.5
Substance: TK_ΔSBDα_K69A-B (from UniProt Q56235 1-501; Q9RA63 1-854)

ATPase stimulation of the fusion, 55 °C, 3 mM ATP [5]: 2 fold
Substance: TK_ΔSBDα_T195A-B (from UniProt Q56235 1-501; Q9RA63 1-854)

reactivation of heat-aggregated α-glucosidase by the fusion with unfused TDnaK, TDnaJ, TGrpE (TKJE) and 5 mM ATP, 55 °C, 90 min [6]: < 2%
reactivation of heat-aggregated α-glucosidase by the fusion with unfused TDnaK, TDnaJ, TGrpE (TKJE) and 5 mM ATP, 55 °C, 90 min [7]: < 2%
reactivation of heat-aggregated α-glucosidase by the fusion with unfused TDnaK, TDnaJ, TGrpE (TKJE) and 5 mM ATP, 55 °C, 90 min [8]: < 2%
rate of reactivation of heat-aggregated EYFP by the fusion with unfused TDnaK, TDnaJ, TGrpE (TKJE) and 5 mM ATP, 55 °C [9]: < 0.1 % min^-1
rate of reactivation of heat-aggregated EYFP by the fusion with unfused TDnaK, TDnaJ, TGrpE (TKJE) and 5 mM ATP, 55 °C [10]: < 0.1 % min^-1
rate of reactivation of heat-aggregated EYFP by the fusion with unfused TDnaK, TDnaJ, TGrpE (TKJE) and 5 mM ATP, 55 °C [11]: < 0.1 % min^-1
Substance: Thermus thermophilus DnaK (TDnaK) (from UniProt Q56235 1-615) (natural protein)
